Experimental data: the nanobody polyreactivity screen of Harvey et al. (2022)

Assay: yeast display, Sf9 membrane polyspecificity reagent, FACS + sequencing; frameworks hold sequencing errors
Outline: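 Galactose induction of a Saccharomyces cerevisiae BJ5465 synthetic nanobody display library ran 36–48 hours. The cells were then stained for 1 hour at 4 °C with 10% biotinylated, detergent-solubilized Sf9 membrane reagent, pulled down on streptavidin microbeads and FACS-sorted into low and high (top ~1%) gates on expression and reagent-binding fluorescence. Labels for polyreactivity follow the gate of origin.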

Row | Sequence | polyreactivity (PSR sort gate)
1 | QVQLVESGGGLVQAGGSLRLSCAASGRIFSPYAMGWYRQAPGKERELVAAISSSGTYYADSVKGRFTISRDNAKNTVYLQMNSLKPEDTAVYYCNARRYWGRYDYWGQGTQVTVSS | high polyreactivity
2 | QVQLVESCGVLVQAGGSLRLSCDASGSIFVWNAMGWYREAPGKERELVAAIRSDDDSTYYADSVKGLFTISRDNAKNTVYLQMNCLNPEDTAVINALVDSPTFSHVKPWDGGDYWGQGTQVTVSS | low polyreactivity
3 | QVQLVESGGGLVQAGGSLRLSCAASGGIFGGYAMGWYRQAPGKAGALVAVITSGGSTYYADSVKGRFTISRDNAKNTVYLQMNSLKPEDTAVYYCAADGHSYSYSTYDYWGQGTQVTVSS | low polyreactivity
4 | QVQLVESGGGLVQAGGSLRLSCAASGSIFAYYVMGWYRHAHGKERELVAAISARGGRTYYADSVKGRFTISRDNAKNTVYLQMNSLKQEDTAVYYCNALDQRYSQAVEYDYWGQGTQVTVSS | high polyreactivity
5 | QDQLVQSGGGLVQAGGTLRLSCAASGRIIYVNAMGWYRQAPGKERDFVATITRGGSTYYADSVKGRFTISRDNAKNTVYFQMNSLQPEDTAVYYCATVRGGWKGRGHRNDYWGQGTQVTVSS | high polyreactivity
6 | QVQLVESGGCLVQAGGSLRLSCAASGFIFSYYALGWYRQAPGKERELVAAITWDGGSTYYADSVKGRFTISRDNAKNSVYLQMNSLKPEDTAVYYCNAYYYYRRPLEGGYWGQGTQVTVSS | low polyreactivity
7 | QVQLVESGGGLVQAGGSLRLSCAASGGTFIYYAMGWYSQAPGKERELVAAISSGGSTYYADSVKGRFTISRDNAKNTVYLQMNSLKPEDTAVYYCAKRRAVQIVDLEYWRQGTQVTVSS | low polyreactivity
8 | QVQLVESGGGLVQAGGSLRLSCAASGFIFKFYAMGWYRQAPGKETELVAAISKSGGRTYYADSVKGRFTISRDNAKNSVYLQMNSLKPEDTAVYYCNAPSVGAAFDYWGQGTQVTVSS | high polyreactivity
9 | QVQLVESGGGLVQAGGSLRLSCAASGSIFLAYAMGWYRQAPGKERELVATISSGGSTNYADSVKGRFTISRDNAKNTVYLQMNSLKPEDTAVYYCIADYSIPGYYWPYDYWGQGTQVTVSS | low polyreactivity
10 | QVQLVESGGGLVQAGGSLRLSCAASGPTFPVKSMGWYRQAPGKERELVAAISWRDGRTYYADSVKGRFTISRDNAKNTVYLQMNSLKPEDTAVYYCNVVKRRSDWGMDYWGQGTQVTVSS | high polyreactivity
11 | QVHLVESGGGLVQAGGSLRLSFAASGRIFDLYTMGWYRQAPGKERELVAAIRWSDGSTYYADSVKGRFTISRDNAKNTVYLQMNSLKPEDTAVYYCAADTRTSYYNDDYDYWGQGTQVTVSS | low polyreactivity
12 | QVQLVESGGGIVQAGVSLRLISAASGRIFRINAMGWYRQAPGKERDLVADITSGGSTNYADSVKGRFTISRDNAKITVYLQMNSLKPEDTAVYFCAPGYVTYRTRLDYWGQGTQVTVSS | low polyreactivity
13 | QVQLVESGGGLVQAGGSLRLSCAASGSTFYGYAMGWYRQAPGKERELVAAINWSGGRTYYADSVKGRFTISRDNAKNTVYLQMNSLKPEDTAVYYCAARGRYQPQFDYWGQGTQVTVSS | high polyreactivity
14 | QVQLVESGGGLVQAGGSLRLSCAASGGTYNSNAMGWYRQAPAKEREFVAAISSSGGSTYYADSVKGRFTISRDNAKNTVNLQMNSLKPEDTAVYYCAKRYPYPNCRFRFGYWGQGTQVTVSS | high polyreactivity
15 | QVQLQESGGGLVQAGGSLRLSCAASGTITVLYKMGWFRQAPGKEREFVASINYGTSTYYADSVKGRFTVSRDSAKNTVYLQMNCLKPEDTAVYYFAAAYRWQDVYRYWGQGTQVTVSS | low polyreactivity
16 | QVQLVESGGGLVQAGGSLRLSCAASGSILSYYAMGWYRQAPGKERELVAAISKSGGRTYYADSVKGRFTISRDNAKNTVYLQMNRLKPEDTAVYYCAAPATYKYDYWGQGTQVTVSS | high polyreactivity
17 | QVQLVESGGGLVQAGGSLRLSCAASGFIFYYNAMGWYRQAPGKERELVAAITRSGGSTYYADSVKGRFTISRDNAKNTVYLQMNSLKPEDTAVYYCAARVYPYHWSYYYWGQGTQVTVSS | high polyreactivity
18 | QVQLVESRGGLVQAGGSLRLSCAASGSIFYDNAMGWYRQAPWKEREFVAAISLRTGRTYYADSVKGRFTISRDNAKNTVYLQMNSLKPEDTAVFYCAARGYYGPKYYYWGQGTQVTVSS | high polyreactivity
19 | QVQLVESGGGLVQAGGSLRLSCAASGRTFGYNVMGWYRQAPGKERELVAVINGRGGSTYYADSVKGRFTISRDNAKNTVYLQMNSLKPEDTAVYYCNVVSGGYFEYDYWGQGTQVTVSS | high polyreactivity
20 | QVQLVESGGGLVQAGGSLRLSCAASGSIFTYNAMGWYRQAPGKERELVATISYSGGSTDYADSVKGRFTISRDNAKNTVYLQMNSLKPEDTAVYYCNKEYGYPPIWQDYGYDSWGQGTQVTVSS | high polyreactivity
21 | QVQLVESGGGLVQAGGSLRLSCAASGSTFGVYNMGWYRQAPGQESELVAAITKSGGSTYYADSVMGLFTISRDNAKNTVYLQMNSMNPEDTAVYYCNTDYGRYLYYRFGYLGQGTQVTVSS | low polyreactivity
22 | QVQLVESGGGLVQAGGSLRLSCAASGITFVQYAMGWYRQAPGKERELVAAITSDGRTYYADSVKGRFTISRDNAKNTVYLQMNSLKREDTAVYYCAADVWRYTAYGGAYRRDYWGQGTQVTVSS | low polyreactivity

Row | Sequence | polyreactivity (PSR sort gate)
23 | QVQLVESGGGLVQAGGSLRLSCAASGSIYVGNDMGWYSQAPGKESEFVATMSWAGGSTDYADSVKGRFTISRDNAKNTVYLQMNSQKPEDTAVYYCAKTPYSRYRYGGYTYRTFDYWGQGTQVTVSS | low polyreactivity
24 | QVQLVESCGGLVQAGGSLRLSCAASGRTFPAYAMGWSRQAPGKERELVAAISSSGSRTYYADSVKGRFTISRDNAKNTVYLQMNSLKQEDTAVYYCAARGGRRQKVNRDDYWGQGTQVTVSS | high polyreactivity
25 | QVQLVESGGGLVQAGGSLRLSCAASGSTFGANAMGLYRQAPGKEREFVAAISRSGVRTYYADSVKGRFTISRDNAQNTVYLQMNSLKPEDTAVYYCAADGYWWTYTRYDYWGQGTQVTVSS | low polyreactivity
26 | QVQLVESGGRLVQAGASLRLSCDASGRIFQWYAIGWYRQAPGKVRELVAAITSGSSTYYADSVKGRFTISRDNAKNSVYLQMNSLKPEDTAVYYCAAEAVYVSSWYDDYYYFRYDYWGQGTQVTVSS | high polyreactivity
27 | QVQLVESGGGLVQAGGSLRLSCAASGFIFVPYAMGWYRQAPGKERELVARITWSGGRTYYADSVKGRFTISRDNAKNTVYLQMNSLKPEDTAVYYCNADVYGFDYWGQGTQVTVSS | high polyreactivity
28 | QVQLVESGGGLVQAGGSLRLSCAASGSLFGGYAMGWYRQAPGKERELVAAISGSGGSTYYADSVKGRFTISRDNAKNTVYLQMNSLKPEDTAVYYCAAEYYGTYSEGGESYDYWGQGTQVTVSP | low polyreactivity
29 | QVQLVESGGGLVQAGGSLRLSCAASGRIFAYYAMGWYRQAPGKERELVAAITSSGGSTYYADSVKGRFTISRDNAKNTVYLQMNSLKPEDTAVYFCAKVGARSERFDYRGQGTQVTVSS | high polyreactivity
30 | QVQLVESGGGLVQAGGSLRLSCAASGFTFKRNAMGWYRQAPGKERELVAAISWSGSRTYADSVKGRFTISRDNAKNTVYLQMNSLKPEDTAVYYCAASPGRRRRPYASLIRYDYWGQGTQVTVSS | high polyreactivity
31 | QVQLVESGGGLVQAGGSLRLSCAASGRNFSNYAMGWYRQAPGKERELVAAIRATGTTTYYADSVKGRFTISRDNAKNTVYLQMNSLKPDDTAVYYCAARGSRYRSSGYDYWGQGTQVTVSS | high polyreactivity
32 | QVQLVESGGGLVQAGGSLRLSCAASGFIMDYNTMGGYRQAPGKERELVAAISSSGDTTYYAASVKGRFTISRDNAKNSVYLQMNCLKPDDTAVYYCAREYGDGYEYWGQGTQVTVSS | low polyreactivity
33 | QVQLVESGGGLVQAGGSLRLSCAASGFIFYYYAMGWYRQAPGKERELVAAITSSGGSTYYADSVKGRFTISRDNAKNTVYLQMISLKPEDTAVYYCNALQYSRMDYWGQATQVTVSS | high polyreactivity
34 | QVQLVESGGGLVQAGGRLRLSCAASGSTFEVNAMGWYRQAPGKERELVAAISSSAGDTYYADSVKGRFTISRDNAKYTVYLQMNSLKPEDTAVYYCAADYGYSPFDYWGQGTQVTVSS | low polyreactivity
35 | QVQLVESCGGLVQAGGSLRLSCAASGSTFVVNAMGGYRQAPGKERELVADISFTGDSTFYADSVKGRFTISRDNAKNTVYLEMNSLKPDDTAVYYCAADFRRVFSKYSYYLYFDFDYWGQGTQVTVSS | low polyreactivity
36 | QVQLVESGGGLVQAGGSLSLSCADSGSNFGDYAMGWYRQAPGKERELFAAISFSDGSTYYADSVKGRFTISRDNANNTVYLQMNSLKPEDTAVYYCAKDAYWGYRWYTYDYWGQGTQVTVSS | low polyreactivity
37 | QVQLVESGGGLVQAGGSLRLSCAASGSIFTRYAMGWYRQAPGKERELVAAITASGGRTYYADSVKGRFTISRDNAKNTVYLQMNSLKPEDTAVYYCNTYWRFTSQLPYDYWGQGTQVTVSS | high polyreactivity
38 | QVQLVESGGGLVQAGGSLRLSCAASGRTFRPNVMGWYRQAPGKERELVAAISNGGRTYYADSVKGRFTISRDNAKNTVFLQMNCLKAEYTAVYYCNKVRSPWYDYWVQGTQVTVSS | high polyreactivity
39 | QVQLVESGGGLVQAGGSLRLSCAASGRTSYTNAMGWYRQAPGKERELVAAINYSGGSTYYADSVKGRFTISRDNAKNTVYLQMNSLKPEDTAVYYCAAERYYWYTEMGYWGQGTQVTVSS | high polyreactivity
40 | QVQLVESGGGLVQAGGSLRLSCAASGSIFGYYTMGWYIQAPGKERELVATITSGGSTYYADSVKGRFTISRDNAKNSVSLQMNSLKPEDTAVYYCNADRYWRVYWGQGTQVTVSS | high polyreactivity
41 | QVHLVESGGGLVQAGGSLRLSCAASGSIFAVYAMGWYRQEPGKERELVAVITRSGGSTYYADSVKGRFTISRDNAKKTVYLQLYSLKPEDTAVYYCAARSSYLLRYDYWGQGTQVTVSS | high polyreactivity
42 | QVQLLESGGGLVQAGGSLRLSCAASGRIFRAYAMGWYRQAPGKERELVAAISWRYGSTYYADSVKGRFTISRDNAKNTVYLQMNSVKPEDTAVYYCAAEYDWPGYDYWGQGTQVTVSS | high polyreactivity
43 | QVQLVESGGGLVQAGGSLRLSCAASGSIFGHNTMGWYRQAPVKERELVAAISSGSRTNSADTVKGRFTISRDNAKNTVYLQMKSLKPEDTAVDYCATKVYSSRYRGYGYWGQGPQVTVSS | high polyreactivity
